Results: patent US20120301468A1, “ANTI-MN ANTIBODIES AND METHODS OF USING SAME” (BAYER HEALTHCARE LLC, priority 2005, published 2012)

What was measured:
[1] = test system: MN+ (PC3 mm2) cells; assay: FACS cell binding, PC3 mm2 cells; assay type: cell-based, human; details: MN+ cells (PC3 mm2, FIGS. 10b, 10c)
Experimental: (§1) Cells may be assayed for MN expression as a diagnostic tool. Adherent MN-expressing PC-3 mm2 cells and non-MN expressing DLD1 cells were detached from their flasks with 1:10 trypsin/Versene in PBS solution for 5 to 10 minutes. Cells were spun down (1000 rpm, 5 minutes), washed once with ice cold RPMI 10% FBS, and resuspended in ice-cold staining buffer (Ca^+ Mg^+-free PBS, 2% BSA, and 0.05% sodium azide) at 6×10^6 cells/ml. Primary antibody, human anti-MN IgG1, or control human IgG1 antibody at 25 μg/mL were incubated with 6×10^5 cells on ice for 1 hour. The unbound antibody was washed from the cells with the ice-cold staining buffer. The cells were fixed with 2% formaldehyde in PBS for 10 minutes, then washed twice with staining buffer. The cell pellet was resuspended in 100 μl ice cold staining buffer containing anti-human Alexa fluor 488 secondary antibody (final conc. 1:200, Molecular Probes/Invitrogen, Carlsbad, Calif.), and incubated on ice for 1 hour. The unbound antibody was washed from the cells two times with flow buffer (PBS containing 2% BSA), and the cells were resuspended in 1 mL flow buffer. FACS analysis of the resuspended cells was performed on a […] FACS Caliber instrument.

[2] = test system: MN-expressing PC3 mm2 cells; assay: In vitro cytotoxicity, PC3 mm2
[3] = test system: MN-negative DLD cells; assay: FACS cell binding, DLD cells; assay type: cell-based
Experimental: as §1
The MN antibody G250, a humanized IgG1 antibody, (Wilex) was used as a reference throughout the in vitro studies.

[4] = test system: MaTu human mammary carcinoma xenograft; details: MaTu xenograft; 30 mg/kg immunoconjugate; i.v. Q4Dx3
Experimental: Anti-MN antibodies were conjugated to cytotoxic small molecules using protocols that are known in the art (e.g., Liu, et al., Proc. Natl. Acad. Sci. 93:8618-8623, 1996). Human mammary xenograft, MaTu cells were maintained as adherent cultures in RPMI supplemented with 10% FBS. Ncr nude mice (8-12 weeks of age) were inoculated subcutaneously in the right flank with 5×10^6 cells in 0.1 mL of 80% matrigel/20% HBSS. When tumors reached an average size of ˜180 mg (6 days), treatment was initiated. Monoclonal antibodies conjugated to cytotoxic small molecules were administered i.v. once every four days (Q4Dx3) at a dose of 10 mg/kg. […] The length and width of each tumor was measured by using an electronic caliper 2-3 times per week and tumor weights (mg) were calculated based on the formula of [length (mm)×width (mm)^2]/2. […] Tumor growth inhibition (TGI) was calculated as 1−T/C×100, where T=final tumor weights from a treated group, and C=final tumor weights from the control group.
The in vivo anti-tumor effect of 3ee9/MMAE was examined in 6 different human xenograft tumor models. […] The human tumor xenograft models evaluated included the MaTu human mammary carcinoma model, the HT-29 and Colo-205 human colo-rectal carcinoma (CRC) models, PC3MM2 prostate carcinoma model, the HCT-15 multi-drug resistant (P-gp) CRC model, and the MiaPaCa2 human pancreatic model. […]

[5] = test system: adhesion of MaTu cells to MN-coated wells; assay: Cell adhesion assay; assay type: cell-based, human; details: 100 μg antibody; 5000 MaTu cells
Experimental: Fifty (50) μL of a 1 μg/mL solution of purified MN in PBS was adsorbed onto a non-treated 96-well plate overnight at 4° C. The solution was removed, and the wells rinsed 3× with PBS. The wells were blocked for 1 hour with 200 μL 50% FBS in RPMI1640 media. The wells were then treated with 100 μg 1e4 anti-MN antibody in 1% BSA in PBS, control IgG in 1% BSA in PBS or 1% BSA in PBS. After washing with PBS, 5000 MaTu cells (MN+ cells) were added to the wells and the plate incubated overnight at 37° C. at 5% CO2. The ability of anti-MN antibodies to block adhesion of MaTu cells to MN-coated wells was assessed after washing with PBS.

[6] = test system: MN-negative cells (DLD1); assay: Antibody internalization (Cellomics), DLD1; assay type: cell-based
[7] = test system: MN-expressing cells (PC3 mm2); assay: Antibody internalization (Cellomics), PC3 mm2; assay type: cell-based, human
[8] = test system: MN+ cells (MaTu); assay: In vitro cytotoxicity, MaTu
[9] = biological target: MN (Homo sapiens, UniProt Q16790); assay: Immunoprecipitation of biotinylated cell surface proteins; assay type: binding; design: incubated with cell lysates of MN+ (Pc3 mm2) and MN− (DLD-1) cell lines that had been selectively labeled with biotin; endogenous in cells; host or cells: PC-3 mm2 (MN+); DLD-1 as the MN- control; details: biotin-labeled lysates of MN+ (Pc3 mm2) and MN− (DLD-1) cell lines
Experimental: To further explore specificity, various candidate antibodies including the antibody portion of 3ee9/MMAE (3ee9) and the reference antibody G250 were incubated with cell lysates of MN+ (Pc3 mm2) and MN− (DLD-1) cell lines that had been selectively labeled with biotin. Complexes between the antibodies and cellular proteins were immuno-precipitated and the co-precipitated antigens visualized using immunoblots developed with enzyme-linked streptavidin.

B1: 1aa1 immunoconjugate (conjugate)
VH: QVELVQSGAEVKKPGASVKVSCKASGYTFTTNYMHWVRQAPGQGLEWMGIINPHNGSTSYAQKFQGRVTMTRDTSISTAYMELSSLRSEDTAVYYCARGRYFLMDVWGQGTLVTVSS
VL: DIQMTQSPSSLSASVGDRVTITCRASQNILSYLNWYQQKPGKAPKLLIYAASSLQSGVPSRFSGSGSGTDFTLTISSLQPEDFAVYYCQQYGSVPTFGQGTKVEIK
cell binding by FACS [1]: exhibited binding to MN+ cells | cytotoxicity [2]: selectively cytotoxic for MN+ cells | cell binding by FACS [3]: not to MN− cells

B2: 1e4: anti-MN monoclonal IgG1; CDRs SEQ ID NOS: 59, 65, 72, 107, 109, and 111 (antibody, V domains shown)
VH: ELVESGGGLVQPGGSLRLSCAASGFTFSNNAMNWVRQAPGKGLEWVSGISYDSSKTYYADSVKGRFTISRDNSKNTLYLQMNSLRAEDTAVYYCARLTYTGAYRWGQGTLVTVSS
VL: DIELTQPPSVSVAPGQTARISCSGDNLGSYYVHWYQQKPGQAPVLVIYDDNNRPSGIPERFSGSNSGNTATLTISGTQAEDEADYYCQSYDFGKVVFGGGTKLTVL
anti-tumor effect [4]: no effect | inhibition of cell adhesion [5]: inhibits cell adhesion

B3: 1E4 immunoconjugate (conjugate)
VH: QVELVESGGGLVQPGGSLRLSCAASGFTFSNNAMNWVRQAPGKGLEWVSGISYDSSKTYYADSVKGRFTISRDNSKNTLYLQMNSLRAEDTAVYYCARLTYTGAYRWGQGTLVTVSS
VL: DIELTQPPSVSVAPGQTARISCSGDNLGSYYVHWYQQKPGQAPVLVIYDDNNRPSGIPERFSGSNSGNTATLTISGTQAEDEADYYCQSYDFGKVVFGGGTKLTVL
cell binding by FACS [1]: exhibited binding to MN+ cells | anti-tumor effect [4]: significant anti-tumor effect | cytotoxicity [2]: selectively cytotoxic for MN+ cells | internalization [6]: not by MN− (DLD1) cells | internalization [7]: internalized by MN+ cells (PC3 mm2) | cell binding by FACS [3]: not to MN− cells | cytotoxicity [8]: selectively cytotoxic for MN+ cells

B4: 5aa3: anti-MN antibody; CDRs SEQ ID NOS: 81, 83, 85, 104, 105, and 106 (antibody, V domains shown)
VH: QVELVQSGAEVKKPGESLKISCKGSGYSFTGYISWVRQAPGKGLEWMGIIYPGDSYTNYSPSFQGQVTISADKSISTAYLQWSSLKASDTAMYYCARYSGPNWDVMDSWGQGTLVTVSS
VL: DIVLTQPPSVSGAPGQRVTISCSGSSSNIGSYYVNWYQQLPGTAPKLLIYADDKRPSGVPDRFSGSKSGTSASLAITGLQSEDEADYYCQSYDSTKDDSVFGGGTKLTVL
co-immunoprecipitated proteins (specificity) [9]: co-immunoprecipitated several other proteins in addition to MN
